Measured values reported in patent US20230088461A1.

How the values were obtained:
[1] = molecular target: human GPC3 on SK-HEP-1-huGPC3 cells (human) (UniProt P51654); assay: flow cytometry on SK-HEP-1-huGPC3 cells, PE anti-mouse IgG Fc
[2] = molecular target: mouse GPC3 on SK-HEP-1-muGPC3 cells (mouse) (UniProt Q8CFZ4); assay: flow cytometry on SK-HEP-1-muGPC3 cells, PE anti-mouse IgG Fc
[3] = molecular target: cynomolgus monkey GPC3 on SK-HEP-1-cmGPC3 cells (cynomolgus monkey); assay: flow cytometry on SK-HEP-1-cmGPC3 cells, PE anti-mouse IgG Fc

mouse GPC3 on SK-HEP-1-muGPC3 cells (mouse), sequence (Q8CFZ4 25-553 limits assumed): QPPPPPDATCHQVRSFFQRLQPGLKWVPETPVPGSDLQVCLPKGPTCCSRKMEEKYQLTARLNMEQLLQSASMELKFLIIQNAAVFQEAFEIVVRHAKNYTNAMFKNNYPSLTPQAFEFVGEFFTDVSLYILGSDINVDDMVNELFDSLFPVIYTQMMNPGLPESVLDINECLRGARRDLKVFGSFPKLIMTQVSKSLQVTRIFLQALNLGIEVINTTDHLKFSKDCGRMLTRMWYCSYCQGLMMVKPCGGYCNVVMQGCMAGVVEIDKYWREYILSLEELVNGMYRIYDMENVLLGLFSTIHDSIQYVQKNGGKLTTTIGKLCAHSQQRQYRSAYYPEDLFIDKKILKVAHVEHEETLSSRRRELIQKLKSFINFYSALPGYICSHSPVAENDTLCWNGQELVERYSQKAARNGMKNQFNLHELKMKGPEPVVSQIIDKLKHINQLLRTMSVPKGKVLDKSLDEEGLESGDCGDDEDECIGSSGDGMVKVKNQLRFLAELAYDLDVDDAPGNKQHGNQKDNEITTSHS

Positive population, % [1]: 0.85%
Positive population, % [2]: 0.91%
Positive population, % [3]: 0.43%
Substance: ISOTYPE (antibody)
